T1: human ICOS-mFc (Chimerigen) (human, UniProt Q9Y6W8 21-140)
T1 construct: Bought; also called recombinant human ICOS protein; hICOS; not shown: mouse Fc of the bought fusion
T1 sequence: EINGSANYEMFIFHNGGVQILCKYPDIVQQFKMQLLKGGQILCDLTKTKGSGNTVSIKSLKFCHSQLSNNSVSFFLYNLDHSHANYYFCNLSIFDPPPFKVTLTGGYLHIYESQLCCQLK

T2: mouse ICOS-mFc (Chimerigen) (mouse, UniProt Q9WVS0 21-141, limits assumed)
T2 construct: Bought; also called recombinant mouse ICOS protein; mICOS; not shown: mouse Fc of the bought fusion
T2 sequence: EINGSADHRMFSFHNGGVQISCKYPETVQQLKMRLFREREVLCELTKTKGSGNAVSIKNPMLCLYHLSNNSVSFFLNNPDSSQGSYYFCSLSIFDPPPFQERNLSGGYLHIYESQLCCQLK

T3: human ICOS expressed on cells (human, UniProt Q9Y6W8 21-199)
T3 construct: also called CHO-S cells transfected with human ICOS; hICOS
T3 sequence: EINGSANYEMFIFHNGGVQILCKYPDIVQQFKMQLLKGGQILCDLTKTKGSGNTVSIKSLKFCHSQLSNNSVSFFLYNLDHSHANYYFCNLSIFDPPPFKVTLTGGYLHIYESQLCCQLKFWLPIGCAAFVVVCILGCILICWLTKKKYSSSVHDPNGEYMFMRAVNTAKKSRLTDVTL

B1: STIM003 (antibody, human IgG1, kappa)
heavy: not shown
light: EIVLTQSPGTLSLSPGERATLSCRASQSVSRSYLAWYQQKRGQAPRLLIYGASSRATGIPDRFSGDGSGTDFTLSISRLEPEDFAVYYCHQYDMSPFTFGPGTKVDIKRTVAAPSVFIFPPSDEQLKSGTASVVCLLNNFYPREAKVQWKVDNALQSGNSQESVTEQDSKDSTYSLSSTLTLSKADYEKHKVYACEVTHQGLSSPVTKSFNRGEC
notes: Anti-ICOS monospecific antibody, tested as human IgG1; also called STIM003 monoclonal IgG1 antibody
B2: STIM001 (antibody, human IgG1, kappa)
heavy: not shown
light: DIVMTQSPLSLPVTPGEPASISCRSSQSLLHSNEYNYLDWYLQKPGQSPQLLIFLGSNRASGVPDRFSGSGSGTDFTLKITRVEAEDVGIYYCMQSLQTPLTFGGGTKVEIKRTVAAPSVFIFPPSDEQLKSGTASVVCLLNNFYPREAKVQWKVDNALQSGNSQESVTEQDSKDSTYSLSSTLTLSKADYEKHKVYACEVTHQGLSSPVTKSFNRGEC
notes: Anti-ICOS monospecific antibody, tested as human IgG1; also called STIM001 monoclonal IgG1 antibody

Legend:
[1] = molecular target: T1, human ICOS-mFc (Chimerigen); experiment: DELFIA ELISA on coated human ICOS-mFc, N=2
Method: (§1) Recombinant ICOS proteins, human ICOS-mFc or mouse ICOS-mFc (Chimerigen) were diluted in 1×PBS and added to Black Hi-bind plates (Griener) at 1 μg/ml, 50 μl/well. Recombinant PD-L1 proteins, human PD-L1-Flag-His or mouse-His were diluted in 1×PBS and added to Black Hi-bind plates (Griener) at 4 μg/ml, 50 μl/well. The plates were left overnight at 4° C. The next day plates were washed 3× with 300 μl/well of 1×PBS+0.1% Tween and blocked with 200 ul/well of 1×PBS+1% BSA blocking buffer for 1 hr at RT on a plate shaker. Plates were washed 3× with 300 μl/well of 1×PBS+0.1% Tween.
(§2) However, human-PD-L1 mAb² antibodies were diluted in 1×PBS+0.1% BSA buffer and diluted 1 in 2 from a starting working concentration of 0.066 μM over an 11 point titration. Titrated antibodies were added to the plates, 50 μl/well and left to incubate for 1 hr at R.T on a plate shaker. Plates were washed 3× with 300 μl/well of 1×PBS+0.1% Tween.
(§3) DELFIA® Eu-labelled Anti-human IgG (Perkin-Elmer) was diluted 1:500 in DELFIA Assay buffer (Perkin-Elmer) and added to the assay plate (50 μl/well), left to incubate for 1 hr at RT on a plate shaker. […] After incubation, assay was read on Envision plate reader (Perkin Elmer), Time-resolved fluorescence (TRF) was measured at 615 nm.

[2] = molecular target: T2, mouse ICOS-mFc (Chimerigen); experiment: DELFIA ELISA on coated mouse ICOS-mFc, N=2
Method: as §1, §2, §3

[3] = molecular target: T1, human ICOS-mFc (Chimerigen); experiment: DELFIA ELISA on coated human ICOS-mFc, mean
Method: as §1, §2, §3

[4] = molecular target: T2, mouse ICOS-mFc (Chimerigen); experiment: DELFIA ELISA on coated mouse ICOS-mFc, mean
Method: as §1, §2, §3

[5] = molecular target: T1, human ICOS-mFc (Chimerigen); experiment: HTRF, human ICOS-mFc, competitor human B7-H2-Alexa 647, n3
Method: (§4) 5 μl of human ICOS-mFc (Chimerigen) at 20 nM (5 nM final) or 5 ul of mouse ICOS-mFc (Chimerigen) at 4 nM (1 nM final) were added to relevant assay wells. Plate was incubated for 1 hour (hr) at room temperature (RT).
(§5) After incubation, assay was read on Envision plate reader (Perkin Elmer) using a standard HTRF protocol. 620 nm and 665 nm channel values were exported to Microsoft Excel and % Delta-F and % Neutralisation calculations performed. Titration curves and IC50 values [M] were plotted using Graphpad (Prism). IC50 values were calculated by first transforming the data using equation X=Log(X). The transformed data was then fitted using nonlinear regression, using fitting algorithm, log (inhibitor) vs. response—variable slope (four parameters).

[6] = molecular target: T1, human ICOS-mFc (Chimerigen); experiment: HTRF, human ICOS-mFc, competitor human B7-H2-Alexa 647, average
Method: as §4, §5

[7] = molecular target: T2, mouse ICOS-mFc (Chimerigen); experiment: HTRF, mouse ICOS-mFc, competitor mouse B7-H2-Alexa 647, average
Method: as §4, §5

[8] = molecular target: T3, human ICOS expressed on cells; experiment: Flow cytometry on CHO-S human ICOS cells, anti-human IgG AF647, mean
Method: CHO—S cells transfected with either human ICOS or mouse ICOS were resuspended in FACS buffer (PBS+1% w/v BSA+0.1% w/v sodium azide) and transferred to a 96-well V-bottom plate (Greiner) at a density of 1×10⁵ cells per well. mAb and mAb² were titrated in FACS buffer, 1 in 3 dilution across 11 points from a starting working concentration of 400 nM. Plates were centrifuged at 300×g for 3 minutes, supernatant discarded and 50 μL mAb or mAb² solution were added to cells and incubated at 4° C. for 1 hour. Cells were washed with 150 μL of PBS and centrifuged at 300×g for 3 minutes, supernatant was discarded and cell pellet resuspended in 150 μL PBS added. This wash step was repeated twice. Bound mAb or mAb² was detected by addition of 50 μL of anti-human 647 (Jackson ImmunoResearch) diluted to 3 ug/ml in FACS buffer. Cells were incubated for 1 hour at 4° C. in the dark. Cells were washed with 150 μL of PBS and centrifuged at 300 g for 3 minutes, supernatant was discarded and cell pellet resuspended in 150 μL PBS added. This wash step was repeated twice. Cells were fixed with 25 μL 4% v/v paraformaldehyde, incubated for 20 minutes at 4° C., cells were pelleted by centrifugation at 300×g and the supernatant discarded. […] AlexaFluor 647 signal intensity (geometric mean) was measured by flow cytometry using a Beckman Coulter CytoFLEX instrument.

Binder	EC50 [1]	EC50 [2]	EC50 [3]	EC50 [4]	IC50 [5]	IC50 [6]	IC50 [7]	EC50 [8]
B1	1.04 nM	0.386 nM	0.751 nM	0.38 nM	0.71 nM	0.53 nM	0.37 nM	5.53 nM
B2	25.5 nM	18.7 nM	28.9 nM	11.4 nM	2.33 nM	1.47 nM	8.71 nM	21.2 nM
